Results as given in PMC6627510 (2019).

B1: Escherichia coli dUTPase Q93H mutant (enzyme)
chain: not shown
B2: Escherichia coli dUTPase Q93R mutant (enzyme)
chain: not shown

Target: Stl_(SaPIbov1) protein (staphylococcal repressor) (Staphylococcus aureus)
Assay: ITC

Binder	Kd [nM]
B1	60.8
B2	97.2
